{
  "source": "the nanobody polyreactivity screen of Harvey et al. (2022)",
  "data": [
    {"assay": "yeast display, Sf9 membrane polyspecificity reagent, FACS + sequencing; frameworks hold sequencing errors", "outline": "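Genes from sorted yeast were amplified by colony PCR, read by MiSeq 2 × 250 sequencing and filtered on CDR length. These cells carried a synthetic nanobody library in Saccharomyces cerevisiae BJ5465 and were sorted by FACS into low and high (top ~1%) gates on anti-HA and streptavidin fluorescence. Polyreactivity is labelled according to the gate of origin.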", "values": [
      {"sequence": "QVQLEESGGGLVQEGGSLRLSCAASGSIFTQNARGWNRQAPGKERELVAAITISGGGTYYADSVKGRFTISRDNAKNTVYFQMNSQKPEDTAVYHCAAAGRARYYYRYGYWGQVTQVTVSS", "polyreactivity (PSR sort gate)": "low polyreactivity"},
      {"sequence": "QVQLEESGGGLVQPGGSLRLRCAASGITFYWNAMGWYRQAPVKERELVAGITNSGGGTYYADSVKGRFTISRDNSMYTVYLLMNSLKPEDSAVYYCAAEPTSWYFFYYVGDYLGQGTQVTVSS", "polyreactivity (PSR sort gate)": "high polyreactivity"},
      {"sequence": "QVQLEESGGGVVQAGGSLRLSCAASGRIFDRYDMARYRQAPGKERELVASISSGGSTYYADSVKGRFTISRVTAKNPVYLQMNSLKPEDTAVYYCNAEARSRRYRYDYWGQGTQVTVSS", "polyreactivity (PSR sort gate)": "high polyreactivity"},
      {"sequence": "QVQLEESGGRLLQAGGSLRLSCAASGCTFGSYDMGLYRQAPGKERELVARISSDGSTNYADSVKGRFSISRDNAKNTVYLQMNSLKPEDTAGYYCARDRKRQADDIGEFDYWGQGSQVTVSS", "polyreactivity (PSR sort gate)": "low polyreactivity"},
      {"sequence": "QVQLEESGGRLVQAGGSLRLSCAASGFTFRYYAMGWYRQAPGKERELVAAITSGGSTNYADSVKGRFTISRDNAKNTVYLQMNSLKPEDTAVYYCKKVPWGSRRMDYWGQGTQVTVSS", "polyreactivity (PSR sort gate)": "high polyreactivity"},
      {"sequence": "QVQLEESGGRLVQAGGSLRLTCAASGRTYARYAIGWNRQAPGKERQLVAAISRGGTTNYADSVKGRFTISRDNAKNTVYLQMNSLKPEDTAVYYCNRDFHLIHLSSARLDYWGQGTQVTVSS", "polyreactivity (PSR sort gate)": "low polyreactivity"},
      {"sequence": "QVQLEESGGSLVQAAGSLRLSCAASGSIFSPYAMGWYRQAPGKERELVAAITWRGGTFYADSVKGRFTISRDNAKNTVDLQMNSLKPEDTAVYYCNARFGQTVKGTYGRYYYWGQGTHVTVSS", "polyreactivity (PSR sort gate)": "high polyreactivity"},
      {"sequence": "QVQLEESGGVLVQAGGSLRLSCAASGSNFYLYAMGWYRQAPGKERELVAGITRSGGRTYYADSVKGRFTISRDNAKNTVYLQMNSLKPEDTAVYYCAAYLVVRIRYTQRYDYWGQGTQVTVSS", "polyreactivity (PSR sort gate)": "low polyreactivity"},
      {"sequence": "QVQLEESGRGLVQAGGSLPLIFAASGSIIRGYAMGWYRPAPGKERELVAAINWSGSSTYYADSVKGRLTISRDNAKNTVNLQMNSLIPEDTAVYYCALVYYNRNLGGDYWGQGTKVTVSS", "polyreactivity (PSR sort gate)": "low polyreactivity"},
      {"sequence": "QVQLEESGRGLVQAGGSLRLSCAASGSISGYYAMGWYRQAPGKERELVAVITSSGTSTYYADSVKGRFTISRDNAKNTVYLQMNSLKPEDTAVYDCWGQGTQVTVSS", "polyreactivity (PSR sort gate)": "low polyreactivity"},
      {"sequence": "QVQLEESGRGLVQAGVSLRLSCAASGSTFYRYAMGWYRQAPGKERELVAANSQSGARTYYADSVKGRFTISRDNAKNTVYLQINSLKPEDTAVYYCAAYPVVNEFDYWGQGTQVTVSS", "polyreactivity (PSR sort gate)": "high polyreactivity"},
      {"sequence": "QVQLEESGVGLVQAGGSLRFSCAASGRIFYSYAMGCDRQAPGKERELVATISSAGSTYYADSVKGRFTISRDNAKNTVYLQMNSLKPEDTAVYYCAARRPRRYGYWGLGTQVTVSS", "polyreactivity (PSR sort gate)": "high polyreactivity"},
      {"sequence": "QVQLEESGVGLVQAGGSLRLSCAASGRTFHIYAMGWYRQAPGKERELVADIRGRSGSTYYADSVKGRFTISRDNAKITVYLQMNSLKPEDTAVYYCAVGRYPYCSARYRFDYWGQGTQVSVSS", "polyreactivity (PSR sort gate)": "high polyreactivity"},
      {"sequence": "QVQLEESGVGLVQAGGSLRLSCAASGSTFQTYVMGWYRQAPGKERELVAAISSGGSTNYADSVKGRFTISRDNAKNTVYLQMNSLKPEDTAVYYCAKRWPYFRRGKDGYWGQGTQVTVSS", "polyreactivity (PSR sort gate)": "low polyreactivity"},
      {"sequence": "QVQLEESGVGLVQAGGSLRLSCAASGYTFDYYDMAWYRQAPGKERELVAAISCSGGRTYYADSVKGRFTISRDNAKNTVYLQMNSLKPEDTAVYYCNTRYGALGKGGMDYWGQGTQVTVSS", "polyreactivity (PSR sort gate)": "high polyreactivity"},
      {"sequence": "QVQLEESRGGLVQAGGSLRLSFAAYGFTYFGYAMGWYRQAPGKERELVAAISTIDGDTYYADSVKGRFTISRDNAKNTFYLLMNSLKPEDNAFYYCAADDYIDGDDYWGQGTQVSVSS", "polyreactivity (PSR sort gate)": "low polyreactivity"},
      {"sequence": "QVQLEETGGGLVQAGGSLRLSCAASGITFGDYAMGWYRQAPGKERELVAAISFTGASTYYADSVKWRFTISRDNAKNTVYLLMNSLKPDDTPVYYCAADPYVPYQDFLSGFDFWGQGTQVTVSW", "polyreactivity (PSR sort gate)": "low polyreactivity"},
      {"sequence": "QVQLEQSGGGLVQAGGSLRLSCAASGRTFVSNAMGWYRQAPGKERELVADITSGGSTDYADSVKGRFTISRDNANNTVYLQMNSLKPEDTAVYYCATDLWRWYGWFDYWGQGTQVTVSS", "polyreactivity (PSR sort gate)": "low polyreactivity"},
      {"sequence": "QVQLGDSGGGLVQAGGSLRISCAASGNTFLYYGMGWYRQAPGKDRDLVAAITQSGGTTYYADSVHGRFTISRDNAKYTVYLQMNSQKPEDTAVYYCGATRYYYYTYVYDDRGDYWGQGTQVTVSS", "polyreactivity (PSR sort gate)": "low polyreactivity"},
      {"sequence": "QVQLGESGGALVQAGGSLRLSCAASGSTIYAYDMGWYRPAPGKERELVAAISSGGSTYYADSVKGRFTFSRDNAKNTVYLQMNCLKPEDTAVYYCATEYTYELEASEPSDYDYWGQGTQVTVSS", "polyreactivity (PSR sort gate)": "low polyreactivity"},
      {"sequence": "QVQLGESGGGLVHEGGSLRLSCAASGFINFANTMGLYRQAPGKERELVAAITSDGSTYYADSVKGRFTISRDNAKNTVYLQMNSLKPEDTAVYYCNAQSNYADLAYWNDYWGQGTQVTVSS", "polyreactivity (PSR sort gate)": "low polyreactivity"},
      {"sequence": "QVQLGESGGGLVQAGGSLRFSCAASGRPFFVYGMGWSRQAPGKERELVAAISWNGGRTYYADSVKGRFTISRDKAKNTVYLQMKSLKPEDTAVYYCNARARDYTGPSSPIFYYWGQGTQVTVSS", "polyreactivity (PSR sort gate)": "low polyreactivity"},
      {"sequence": "QVQLGESGGGLVQAGGSLRLSCAASAYIFGSYAMGRSRQAAGKERELVATISYRAGRTYYADSVKGRFTISRDNAKNTVYLQMNSLKPEYTAVYFSDADFVIDLEYDYWGQGTQVTVSS", "polyreactivity (PSR sort gate)": "low polyreactivity"},
      {"sequence": "QVQLGESGGGLVQAGGSLRLSCAASGFIFPGYAMGLYRQAPGKERELVAAITGSGGSTYYADSVKGRFTISRDNAKYTVYVQMNSVKTEDTAVDYCGAYVSGYLWGYDYWGHGTQVTVSS", "polyreactivity (PSR sort gate)": "high polyreactivity"},
      {"sequence": "QVQLGESGGGLVQAGGSLRLSCAASGFIFRNYAIGWYRPPPGKERELVAAISRSGGSKYYADCVKGRFTISRDKAKNSVYLQMNSLKPVDTAVYYCNKDPRGRIPVPGTWIMDYWGQGTQVTVSS", "polyreactivity (PSR sort gate)": "high polyreactivity"},
      {"sequence": "QVQLGESGGGLVQAGGSLRLSCAASGFTFDFYAMGWYRPAPGKEWELVAAINWSGSSTYYADSVKGRFTISRDNAKNTDYLQMNSLKPEDTAVYYCAAQVYYTLFPDVYTMYYWGQGTQETVSS", "polyreactivity (PSR sort gate)": "high polyreactivity"},
      {"sequence": "QVQLGESGGGLVQAGGSLRLSCAASGFTFGRYTMGWYRPAPGKERELVASITSSGARTYYADSVKGRFTISRDNAKNTVYLQMNSLKPEDTAVYYCNAGKRGSTYYYWGQGTQVTVSS", "polyreactivity (PSR sort gate)": "high polyreactivity"},
      {"sequence": "QVQLGESGGGLVQAGGSLRLSCAASGGTFARNTMGWYRQAPGKERELVAAITRGGSSTYYADSVKGRFTISRDYAKNTVYLQMNSLKPEDTAVYYCNKSLRWLYPYYGTTGRYDYWGQGTQVTVSS", "polyreactivity (PSR sort gate)": "high polyreactivity"},
      {"sequence": "QVQLGESGGGLVQAGGSLRLSCAASGIIFRYYAMAWYRQAPGKERELVAAISSSTGNTYYADSVKGRFTISRDNAKNTVYLQMNSLIPEDTAVYYCAARTRQISIVGYNYWGQGTQVTVSS", "polyreactivity (PSR sort gate)": "high polyreactivity"},
      {"sequence": "QVQLGESGGGLVQAGGSLRLSCAASGNIFRYYAMGWYRQAPGKERELVAAITWSGGSTYYADSVKGRFTISRDNAKNTVYLQMNSLKQEDTAVYYCNTYRVPYRTVQDDYWGQGTQVTLSS", "polyreactivity (PSR sort gate)": "high polyreactivity"},
      {"sequence": "QVQLGESGGGLVQAGGSLRLSCAASGNTFVSNAMGWYRQAPGKERELVAAINSGGSTNYADSVKGRFTISRDNAKNTVYLQMNSLKPEDTAVYYCNKDYDYPQRYWMDYWGQGTQVTVSS", "polyreactivity (PSR sort gate)": "low polyreactivity"},
      {"sequence": "QVQLGESGGGLVQAGGSLRLSCAASGRIFPVNAMGWYRQAPGKERELVATITSYSSTYADSVKGRFTISRDNAMNTVVLQMNCLKPEDTAVYYCNADQGYFGYDYWGQGTQVTVSS", "polyreactivity (PSR sort gate)": "low polyreactivity"},
      {"sequence": "QVQLGESGGGLVQAGGSLRLSCAASGRIFRNNAMGWYRQAPGKERELVAAITWSGGSTYYADSVKGRFTISRDNAKNTVYLQMNSLKPEDTAVYYCNAGRGYKYSYTYDYWGQGTQVTLSS", "polyreactivity (PSR sort gate)": "low polyreactivity"},
      {"sequence": "QVQLGESGGGLVQAGGSLRLSCAASGRIFRWYAMGWYRQAPGKVRELVAAISRSGTSTYYADSVKGRFTISRDNAKNTVYLQMNSLKPEDTAVYYCAADAVIFGMDYWGQGTQVTVSS", "polyreactivity (PSR sort gate)": "low polyreactivity"},
      {"sequence": "QVQLGESGGGLVQAGGSLRLSCAASGRIFWGYAMGWYRQAPGKERELVAAITRGTRTNYADSVKGRFTISRDNAKNTVYLQMNSLKPEDTAVYYCAADYRDSYLFYYWGQGTQVTVSS", "polyreactivity (PSR sort gate)": "high polyreactivity"},
      {"sequence": "QVQLGESGGGLVQAGGSLRLSCAASGRIFWYNAMGWYRQAPGKERELVAGIRSGGSTNYADSVKGRFTISRDNAKNTVYLQMNSLKPDDTAVYYCNVDHEARKLHVSIKQLSDHWGQGTQVTVSS", "polyreactivity (PSR sort gate)": "low polyreactivity"},
      {"sequence": "QVQLGESGGGLVQAGGSLRLSCAASGRTSTGYAMGWYRQAPGKERELVAGIDKIGGRTYYADSVKGRFTISRDNAKNTVYLQMNSLKPEDTAVYYCAKTRYFSVGTHWDYYYWGQGTQVTVSS", "polyreactivity (PSR sort gate)": "high polyreactivity"},
      {"sequence": "QVQLGESGGGLVQAGGSLRLSCAASGSIFGLYAMGWYRQAPGKERELVATITSGSSTTYADSVKGRFTISRDNAKNTVYLQMNSLKPEVTAVYYCGVDDLYGFDYWGQGTQVTVSS", "polyreactivity (PSR sort gate)": "low polyreactivity"},
      {"sequence": "QVQLGESGGGLVQAGGSLRLSCAASGSIFQPYAMGWYRQAPGKEREFVAAISRSGGMTYYADSVKGRFTISRDNEKNTVYLQMNSLKPEDTAVYYCATGRQVVRSYSEGDYSGQGTQVTVSS", "polyreactivity (PSR sort gate)": "low polyreactivity"},
      {"sequence": "QVQLGESGGGLVQAGGSLRLSCAASGSIFSKYAKGSYRQAPGKERELVAAITMNGGSTYYADSVKGRFTISRDNAKNTVYFQMNSLKPEDTAVYYCSKSERPWWGYYYQFDYWGQGTQVTVSS", "polyreactivity (PSR sort gate)": "low polyreactivity"},
      {"sequence": "QVQLGESGGGLVQAGGSLRLSCAASGSTFAPYAMGWYRQAPGKERELVAAISTGGSTNYADSVKGRFTISRDNAMNTVYFQMNSLKPEDTAVYYCNTGYFVWGFDYWGQGTQVTVSS", "polyreactivity (PSR sort gate)": "low polyreactivity"}
    ]}
  ]
}
